This note sets out measurements from IntAct's records for PubMed 28202711.

Experiment [1] has as its target 1433g_human YWHAG (UniProt P61981).
Experiment [2] has the same target. This is another data set of the same source.

Chain of UniProt P61981 (P61981 whole entry): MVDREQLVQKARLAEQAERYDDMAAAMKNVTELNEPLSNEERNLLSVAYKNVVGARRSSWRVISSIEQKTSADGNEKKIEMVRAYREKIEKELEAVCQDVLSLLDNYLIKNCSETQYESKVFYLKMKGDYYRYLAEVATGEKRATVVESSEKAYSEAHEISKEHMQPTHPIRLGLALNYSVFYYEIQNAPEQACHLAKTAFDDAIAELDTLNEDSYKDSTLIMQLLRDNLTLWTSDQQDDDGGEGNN

Regarding “Leucine-rich repeat serine/threonine-protein kinase 2 (Homo sapiens), Q5S007 R1441C”, the “effect of a mutation on the interaction” value in the experiment with 1433g_human YWHAG [1] is “decreasing interaction strength”.
As for “Leucine-rich repeat serine/threonine-protein kinase 2 (Homo sapiens), Q5S007 R1441H”, in the experiment with 1433g_human YWHAG [1], the “effect of a mutation on the interaction” value is “decreasing interaction strength”.
For the substance “Leucine-rich repeat serine/threonine-protein kinase 2 (Homo sapiens), Q5S007 R1441G”, the “effect of a mutation on the interaction” value with 1433g_human YWHAG [1] is “decreasing interaction strength”; with 1433g_human YWHAG [2], “with no effect”.
